Reference: article PMC8784147

Target: HBV core protein dimer (Cp149 dimer, 34 kDa) (hepatitis B virus)
Assay: multi-cycle resistive-pulse sensing

## HBV core protein dimer (Cp149 dimer, 34 kDa) (domain or fragment)
  stoichiometry N: 120 dimers
